Assay results reported in patent US6706762.
Where “and” joins values, the source holds several entries; their conditions need not be identical. Identical values can stand only once.

Biological target: GAL-C-SMRT (yeast) (UniProt P04386)
Test: cell-based or functional assay

Substance | UAS reporter expression, mammalian two-hybrid [fold] | fold lower sensitivity to ATRA than the SMRT/RARα interaction, mammalian two-hybrid
VP16-PLZF (from UniProt Q05516 1-673) | 25 | 
VP-PML-RARα (from UniProt P29590 1-552; P10276 61-462) |  | 100 fold and 200 fold
